One test concerns the target T1, human CD3 antigen (human, UniProt P07766 23-126).
T1 construct: also called Human CD3ϵ
Nature of the test: SPR (Biacore T200), human CD3 antigen on CM5 chip. For orientation: In SPR one partner is held on a chip, and binding of the other changes the refractive index at the surface.

Test [1] has as its target T2, Human CLDN18.2 (human).
T2 construct: the cell line is named under assay; also called hCLDN18.2; human CLDN18.2 antigen
Put plainly: flow cytometry, NUGC4 cells (endogenous CLDN18.2).

Test [2] deals with T2, Human CLDN18.2. Put plainly: flow cytometry, NUGC4-hCLDN18.2 cells. A general note: Flow cytometry measures light scatter and fluorescence of single cells or particles in a stream.
Method: NUGC4 and NUGC4-hCLDN18.2 cells were cultured, digested with pancreatin and centrifuged to collect cells. The cells were collected and resuspended in buffer (PBS+1% FBS) at 1×10⁴ cells/well in a 96-well plate at 100 μL per well. Then the mixture was centrifuged at 350×g for 5 min, and the supernatant was removed.
A further test concerns the target T3, Human CLDN18.1 (human, UniProt P56856 1-261).
T3 construct: also called hCLDN18.1
Put plainly: flow cytometry, 293T-hCLDN18.1 cells.

The target in test [3] is T2, Human CLDN18.2. Put plainly: cell-based or functional assay.

A value given as a limit tells only on which side of the number the result lay.

Method for human CD3 antigen: After the detection was completed, data fitting was carried out on the result pattern by adopting Biacore T200 Evaluation Software in a 1:1 binding fitting mode to obtain an equilibrium dissociation constant (KD).

B1: bispecific antibody CS8 (bispecific antibody, human IgG1, kappa)
light: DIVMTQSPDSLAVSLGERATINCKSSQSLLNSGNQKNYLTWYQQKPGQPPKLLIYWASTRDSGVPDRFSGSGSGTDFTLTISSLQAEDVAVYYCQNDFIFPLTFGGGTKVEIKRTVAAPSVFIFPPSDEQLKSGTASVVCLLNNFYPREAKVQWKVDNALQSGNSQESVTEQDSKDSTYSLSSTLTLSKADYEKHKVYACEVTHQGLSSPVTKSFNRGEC
heavy 1: QVQLQESGPGLVKPSETLSLTCTVSGFSLTRYGVSWIRQPPGKGLEWIGVIWGEGNTNYNPSLKSRVTISKDSSKSQVSLKLSSVTAADTAVYYCARVNFGNALDYWGQGTLVTVSSASTKGPSVFPLAPSSKSTSGGTAALGCLVKDYFPEPVTVSWNSGALTSGVHTFPAVLQSSGLYSLSSVVTVPSSSLGTQTYICNVNHKPSNTKVDKKVEPKSCDKTHTCPPCPAPPVAGPSVFLFPPKPKDTLMISRTPEVTCVVVDVSHEAPEVQFNWYVDGVEVHNAKTKPREEQFNSTFRVVSVLTVVHQDWLNGKEYKCKVSNKGLPAPIEKTISKTKGQPREPQVYTLPPCRDELTKNQVSLWCLVKGFYPSDIAVEWESNGQPENNYKTTPPVLDSDGSFFLYSKLTVDKSRWQQGNVFSCSVMHEALHNHYTQKSLSLSPGK
heavy 2: QVQLQESGPGLVKPSETLSLTCTVSGFSLTRYGVSWIRQPPGKGLEWIGVIWGEGNTNYNPSLKSRVTISKDSSKSQVSLKLSSVTAADTAVYYCARVNFGNALDYWGQGTLVTVSSASTKGPSVFPLAPSSKSTSGGTAALGCLVKDYFPEPVTVSWNSGALTSGVHTFPAVLQSSGLYSLSSVVTVPSSSLGTQTYICNVNHKPSNTKVDKKVEPKSCDKTHTAPAPAPAPAPAPAPAPQVQLVESGGGVVQPGRSLRLSCAASGFTFSTYAMNWVRQAPGKGLEWVGRIRSKYNNYATYYADSVKDRFTISRDDSKNTLYLQMNSLRGEDTAVYYCARHGNFGNSYVSWFAYWGQGTLVTVSSGGGGSGGGGSGGGGSQTVVTQEPSLTVSPGGTVTLTCRSSTGAVTTSNYANWVQQKPGQAPRGLIGGTNKRAPGVPARFSGSLLGGKAALTLSGVQPEDEAEYTCALWYSNLWVFGGGTKVEIKGGGGSDKTHTCPPCPAPPVAGPSVFLFPPKPKDTLMISRTPEVTCVVVDVSHEAPEVQFNWYVDGVEVHNAKTKPREEQFNSTFRVVSVLTVVHQDWLNGKEYKCKVSNKGLPAPIEKTISKTKGQPREPQVCTLPPSRDELTKNQVSLSCAVKGFYPSDIAVEWESNGQPENNYKTTPPVLDSDGSFFLVSKLTVDKSRWQQGNVFSCSVMHEALHNHYTQKSLSLSPGK
notes: CSBODY structure: two 2C6.9 Fab arms; second heavy chain (first heavy entry) and first heavy chain with anti-CD3 scFv (Di6-2) between CH1 and Fc2
For B1, the Kd – broadly, the concentration at which binding is half-saturated – with human CD3 antigen is under 15 nM. In addition, the EC50 – broadly, the concentration giving half of the maximal effect – in the test with Human CLDN18.2 [1] is under 100 nM. For the same molecule, in the test with Human CLDN18.2 [2], the EC50 was under 50 nM. Also, the binding result in the test with Human CLDN18.1 is “no binding”. Also, in the test with Human CLDN18.2 [3], the “EC50 value for killing effect on NUGC4-hCLDN18.2 cells” value is under 0.01 nM and the “EC50 value for killing effect on NUGC4 cells” value was under 0.01 nM.

For the origin of these results see patent publication US20230192903A1 (published 2023).
